Results as given in article PMC8034616.
Substitutions are numbered along the chain they refer to.

Legend:
[1] = test system: T1, H-NS A2 S2A (Shewanella oneidensis MR-1), ORF:b65510ad; experiment: EMSA
T1 sequence: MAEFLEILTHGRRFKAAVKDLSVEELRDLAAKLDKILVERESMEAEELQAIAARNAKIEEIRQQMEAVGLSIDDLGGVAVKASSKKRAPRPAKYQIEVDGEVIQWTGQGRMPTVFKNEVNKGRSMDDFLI

[2] = test system: T2, H-NS A42 S42A (Shewanella oneidensis MR-1), ORF:b65510ad; experiment: EMSA
T2 sequence: T1 sequence with A2S, S42A

[3] = test system: T3, H-NS A71 S71A (Shewanella oneidensis MR-1), ORF:b65510ad; experiment: EMSA
T3 sequence: T1 sequence with A2S, S71A

[4] = test system: T1, H-NS A2 S2A (Shewanella oneidensis MR-1), ORF:b65510ad; experiment: analytical ultracentrifugation
[5] = test system: T2, H-NS A42 S42A (Shewanella oneidensis MR-1), ORF:b65510ad; experiment: analytical ultracentrifugation
[6] = test system: T3, H-NS A71 S71A (Shewanella oneidensis MR-1), ORF:b65510ad; experiment: analytical ultracentrifugation

Measured: binding

GATTTTCTAGTGACAGAAGGTTTTAGCGTTGATAATGCCAAATATGCTGAATTATTTTTGAGACCGAGTAAATTTCTTAGGGGACCAAAAAAACGCATATAATACAATGGATAATGCAATTTAGGTGAGCAAAGGGGACCGTTTTTACCCCGTTTATTCATGCTTCATAACCATCTAATCTCAGGGTTGTAGACGTTTATTCACAACTCTGAGGACGATTATGAACACAACTCTCAC (double strand) [alpA promoter (PalpA)]
binds: all assays above
